Source: patent US20100216196A1 (AJINOMOTO, published 2010)

Molecular target: T1, DsbA protein of Escherichia coli (protein encoded by the dsbA gene) (Escherichia coli, UniProt P0AEG4 20-208, free cysteine thiols labelled with AMS (4-acetamido-4'-maleimidyl-stilbene-2,2'-disulfonate) before electrophoresis)
T1 construct: Endogenous periplasmic DsbA of E. coli BW25113, detected in cell lysates; also called disulfide oxidoreductase
T1 sequence: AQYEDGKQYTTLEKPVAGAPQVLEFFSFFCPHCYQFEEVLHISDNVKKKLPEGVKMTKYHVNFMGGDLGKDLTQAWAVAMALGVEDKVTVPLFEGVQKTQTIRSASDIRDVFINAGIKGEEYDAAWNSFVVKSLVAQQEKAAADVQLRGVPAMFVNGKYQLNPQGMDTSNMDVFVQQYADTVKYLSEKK
Experiment: AMS modification, non-reducing SDS-PAGE and Western blot with anti-DsbA serum; wild-type E. coli BW25113 exposed to 5 mM cysteine

B1: DsbB (enzyme)
chain: MLRFLNQCSQGRGAWLLMAFTALALELTALWFQHVMLLKPCVLCIYERCALFGVLGAALIGAIAPKTPLRYVAMVIWLYSAFRGVQLTYEHTMLQLYPSPFATCDFMVRFPEWLPLDKWVPQVFVASGDCAERQWDFLGLEMPQWLLGIFIAYLIVAVLVVISQPFKAKKRDLFGR
notes: Endogenous protein in the wild-type strain, seen only as the DsbA-DsbB complex band on the anti-DsbA Western blot; also called intracellular membrane protein DsbB
binding result: binds
